Assay results from US7815907B2, “Antibodies to insulin-like growth factor I receptor” (Amgen Fremont Inc., priority 2001, dated 2010).

Legend:
[1] = target: T1, extracellular domain of IGF-IR (Homo sapiens, UniProt P08069); assay: BIAcore affinity measurement, Protocol 2; type: binding; details: BIAcore 3000; as Fagerstam et al.
T1 construct: Different concentrations of the extracellular domain of IGF-IR were injected on the sensorchip
Description: We performed affinity measures of purified antibodies by surface plasmon resonance using the BIAcore 3000 instrument, following the manufacturer's protocols.
BIAcore measurements were performed essentially as described by Fagerstam et al. “Detection of antigen-antibody interactions by surface plasmon resonance. Applications to epitope mapping.” J. Mol. Recog. 3: 208-214. (1990).

A431 tumors = assay: Growth inhibition of epidermoid carcinoma cell tumors; type: in vivo, nude mice
Description: Tumors were induced in nude mice essentially as described in Example IX except that A431 cells (ATCC CRL 1555) were used. A431 cells are human epidermoid carcinoma cells that overexpress EGFR. Mice with established subcutaneous tumors of approximately 250 mm^3 were treated on days 1, 8, 15, 22 and 29 with 500 μg 2.13.2 antibody (i.p.) or were treated once daily for 27 days with 10 mg/kg CP-358,774 given orally (p.o.), either as single agents or in combination, as described in Example IX. CP-358,774 is described in U.S. Pat. No. 5,747,498 and Moyer et al., Cancer Research 57: 4838-4848 (1997), herein incorporated by reference.

[2] = Pharmacokinetics after single intravenous injection; type: in vivo; details: cynomolgus monkeys, 3, 30 or 100 mg/kg intravenously
Description: To evaluate the pharmacokinetics of the anti-IGF-IR antibodies, cynomolgus monkeys were injected intravenously with 3, 30 or 100 mg/kg of 2.13.2 antibody in an acetate buffer. Serum was collected from the monkeys at various time points and anti-IGF-IR antibody concentrations in the monkeys were determined for a period of up to ten weeks levels. To quantitate functional serum antibody levels, the extracellular domain of the human IGF-IR (IGF-I-sR, R&D Systems, Catalog # 391GR) was bound to 96-well plates. Monkey serum (diluted between 1:100 and 1:15,000) was added to the assay plates so that each sample would be within the linear range of the standard curve and incubated under conditions in which any anti-IGF-IR antibody would bind to IGF-I-sR. After washing the plates, a labeled anti-human IgG antibody was added to the plates and incubated under conditions in which the anti-human IgG antibody would bind to the anti-IGF-IR antibody. The plates were then washed and developed, and a control standard curve and linear regression fits used to quantitate the amount of anti-IGF-IR antibodies.

IGF-IR = IGF-IR (Homo sapiens, UniProt P08069); assay: IGF-IR and IGF-IR phosphotyrosine levels in 3T3-IGF-IR tumors in vivo (ELISA); design: expressed in transfected cells; host or cells: NIH-3T3 (mouse fibroblasts); species or system athymic (nu/nu) mice
From the text: We determined whether the effects of the antibodies of the invention on IGF-IR as described in the previous examples would occur in vivo. We induced tumors in athymic mice according to published methods (V. A. Pollack et al., “Inhibition of epidermal growth factor receptor-associated tyrosine phosphorylation in human carcinomas with CP-358,774: Dynamics of receptor inhibition in situ and antitumor effects in athymic mice,” J. Pharmacol. Exp. Ther. 291:739-748 (1999). Briefly, we injected IGF-IR-transfected NIH-3T3 cells (5×10^6) subcutaneously into 3-4 week-old athymic (nu/nu) mice with 0.2 ml of Matrigel preparation. We then injected mice with an antibody of the invention intraperitoneally after established (i.e. approximately 400 mm^3) tumors formed.
After 24 hours, we extracted the tumors, homogenized them and determined the level of IGF-IR. To determine IGF-IR levels, we diluted the SC-713 antibody in Blocking buffer to a final concentration of […] and added 100 μl to each well of a Reacti-Bind Goat anti-rabbit (GAR) coated plate (Pierce). We incubated the plates at room temperature for 1 hour with shaking and then washed the plates five times with wash buffer. We then weighed tumor samples that had been prepared as described above and homogenized them in lysis buffer (1 ml/100 mg). We diluted 12.5 μl of tumor extract with lysis buffer to a final volume of 100 μl and added this to each well of a 96-well plate. We incubated the plates at room temperature with shaking for 1-2 hours and then washed the plates five times with Wash buffer. We then added 100 μl HRP-PY54 or biotinylated anti-IGF-IR antibody in Blocking buffer to each well and incubated at room temperature with shaking for 30 minutes. We then washed the plates five times with wash buffer and developed the plates. […] We then quantitated the signal by shaking for 10 seconds and measuring OD450nm. […]
Tumors were induced in nude mice as described in Example VIII. […] Tumors were extracted and IGF-IR levels were measured by ELISA as described in Example VIII.

[3] = intraperitoneal injection, tumors extracted after 24 hours

With “2.13.2: human IgG2κ monoclonal antibody specific for IGF-IR from hybridoma 2.13.2 (ATCC PTA-2788)” the Kd [1] was 1.53 nM, the “effect on effectiveness of CP-358,774” value (A431 tumors; 500 μg i.p. on days 1, 8, 15, 22 and 29 with 10 mg/kg CP-358,774 p.o. daily for 27 days) was “enhances the effectiveness of CP-358,774” and the A431 tumor growth (A431 tumors; multiple doses, alone or in combination with CP-358,774 (FIG. 16)) was “inhibit A431 tumor growth”. For the same substance, the “dose proportionality of serum amounts” value [2] was “dose-proportional”, the volume distribution [2] was 74 to 105 mL/kg and the “IGF-IR receptor levels in tumors over time” value (IGF-IR; 125 μg by intraperitoneal injection) was “down-regulated”. For the same substance, the “IGF-IR phosphotyrosine (phosphorylated IGF-IR) in tumors” value (IGF-IR; [3]) was “decrease” and the “total IGF-IR protein in tumors” value (IGF-IR; [3]) was “decrease”.
